{"source": "patent US8153424B2", "about": "“Method of in vitro differentiation of neural stem cells, motor neurons and dopamine neurons from primate embryonic stem cells” (Wisconsin Alumni Research Foundation, priority 2001, dated 2012)", "molecules": {"B1": {"name": "FGF8: fibroblast growth factor 8 (protein, UniProt P55075 23-233, looked up)", "Fibroblast growth factor 8": "QEGPGRGPALGRELASLFRAGREPQGVSQQHVREQSLVTDQLSRRLIRTYQLYSRTSGKHVQVLANKRINAMAEDGDPFAKLIVETDTFGSRVRVRGAETGLYICMNKKGKLIAKSNGKGKDCVFTEIVLENNYTALQNAKYEGWYMAFTRKGRPRKGSKTRQHQREVHFMKRLPRGHHTTEQSLRFEFLNYPPFTRSLRGSQRTWAPEPR"}}, "tested_on": "hESC-derived neuroectodermal cells", "assay": "Midbrain regionalization and DA neuron differentiation, immunocytochemistry and cell counting", "assay_type": "cell-based, human", "conditions": "FGF8 100 ng/ml applied at day nine for six days, expanded in FGF8 four days, then SHH six days", "description": "Differentiation and enrichment of neuroectodermal cells. hESC colonies were detached from MEF layer by the treatment of the culture with 0.2 mg/ml of dispase (Roche Diagnostics) and grown as floating cell aggregates (embryoid body) for four days with a daily change of ESC medium. They were then grown in an adherent substrate in a neural medium consisting of DMEM/F12 (2:1), supplemented with N2 (Gibco), 0.1 mM non-essential amino acids, 2 μg/ml heparin with a medium change every other day. The ESC aggregates attached and formed individual colonies at around day six. […] The neural rosettes were isolated through differential enzymatic response (Zhang et al., supra, 2001). Growth factors were added during the course of differentiation to influence regionalization (see results).\nDA neuron differentiation. The enriched neuroectodermal cells were dissociated by 0.025% trypsin and 0.27 mM EDTA in PBS at 37° C. for 10-15 minutes and plated onto 12-mm coverslips (pre-coated with 100 μg/ml polyornithine and 10 μg/ml laminin) at a density of 40,000-50,000 cells/coverslip. […]\nImmunocytochemistry and cell quantification. […] Staining was visualized with a Nikon fluorescence microscope. […] The cells in ten visual fields were randomly selected and counted from each coverslip."}
{"molecule": "B1", "values": [{"measurement": "En-1 expression in nestin-expressing neuroectodermal cells", "value": "En-1 expression was observed"}]}
